B1: KAP1 RBCC (residues 50-413), wild type [human] / itself (parent)
chain: SPAGGGAEALELLEHCGVCRERLRPEREPRLLPCLHSACSACLGPAAPAAANSSGDGGAAGDGTVVDCPVCKQQCFSKDIVENYFMRDSGSKAATDAQDANQCCTSCEDNAPATSYCVECSEPLCETCVEAHQRVKYTKDHTVRSTGPAKSRDGERTVYCNVHKHEPLVLFCESCDTLTCRDCQLNAHKDHQYQFLEDAVRNQRKLLASLVKRLGDKHATLQKSTKEVRSSIRQVSDVQKRVQVDVKMAILQIMKELNKRGRVLVNDAQKVTEGQQERLERQHWTMTKIQKHQEHILRFASWALESDNNTALLLSKKLIYFQLHRALKMIVDPVEPHGEMKFQWDLNAWTKSAEAFGKIVAERP

Variants of: B1
Assay: SEC-MALS
Settings: with itself; mutant 179 µM; WT 159 µM; read off a plot

Variant	screen value [kDa]
chain 1 A111D T114A E126R	95
